Format in all cases: biochemical, Flavonifractor plautii
Substrate in series [1]: CC(=O)N[C@H]1[C@@H](O[C@H]2[C@@H](O)[C@@H](CO)O[C@@H](O[C@H]3[C@@H](O)[C@@H](CO)O[C@@H](Oc4ccc5c(C)cc(=O)oc5c4)[C@@H]3NC(C)=O)[C@@H]2O[C@@H]2O[C@@H](C)[C@@H](O)[C@@H](O)[C@@H]2O)O[C@H](CO)[C@H](O)[C@@H]1O
Kind of series: Kinetic parameters of FpGalNAcDeAc full length (coupled fluorescence assay, MU release). As to conditions: other: 100 mM NaH2PO4, pH 7.4, 37° C. The method, then: (§1) All kinetic assays utilizing 4-methylumbelliferone as leaving group were performed through measurement of fluorescence. To avoid measurement errors based on the inner filter effect (Palmier 2007) standard curves were used to validate the linear range of the fluorophore.
(§2) Michaelis-Menten parameters were determined for A antigen subtype 1penta-MU in 100 mM NaH2PO4, pH 7.4 at 37° C. using the coupled assays described previously (Kwan 2015). The assay was modified to allow detection of cleavage of the subtype 1 (and later 4), by use of BgaC (Jeong 2009) instead of BgaA (Singh 2014) as β-galactosidase. In addition, since A antigen subtype 1penta-MU contains an additional galactose, the concentration of BgaC was increased to 0.2 mg/mL to compensate for its need to cleave both the Gal-β-1,3-B-GlcNAc-β-1,3-Gal-β-MU and Gal-β-MU. Further, FpGalactosaminidase was included to allow the cleavage of the galactosamine-containing intermediate. Reaction setup in 100 μl was 3 nM FpGalNacDeacetylase (4.52 nM FpGalNacDeAc_D1ext, 3.55 nM FpGalNacDeAc_D1+2) and 0.01 mg/mL FpGalactosaminidase, 0.1 mg/mL SpHex, AfcA, 0.2 mg/mL BgaC and varying concentrations of substrate (5 μM-2.5 mM). The reactions were run as a series of four with controls (no FpGalNacDeacetylase) as duplicates. The fluorescence signal (365/435 nm) resulting from MU release by hydrolysis was monitored on a Synergy H1™ plate reader (BioTek™) and converted to concentration using MU standard concentration curves determined under identical reaction conditions. Initial rates (μM/s) were determined and plotted in Grafit 7.0 to determine the kinetic parameters.
(§3) kcat/KM parameter were determined for A antigen subtype 1/2/4tetra-MU at pH 7.4 at 37° C. Reactions (total volume of 100 μL) were performed in black 96-plate wells and as coupled assays in 100 mM NaH2PO4 (pH 7.4) with 12 nM FpGalNAcDeacetylase 0.1 mg/mL SpHex, BgaC (BgaA for subtype II), AfcA, at varying concentrations of substrate (25 μM, 20 μM, 15 μM, 10 μM, 7.5 μM, 5 μM). The reactions were run as a series of four with controls (no FpGalNAcDeacetylase) as duplicates. The fluorescence signal (365/435 nm) resulting from MU release by hydrolysis was monitored on a Synergy H1™ plate reader (BioTek™) and converted to concentration using MU standard concentration curves determined under identical reaction conditions. Initial rates (μM/s) were determined and plotted in Grafit™ 7.0 to determine the kcat/KM (s^−1*mM^−1) parameters.

Substrate in series [2]: CC(=O)N[C@H]1[C@@H](O[C@H]2[C@@H](O)[C@@H](CO)O[C@@H](O[C@H]3[C@H](O)[C@@H](CO)O[C@@H](O[C@H]4[C@@H](O)[C@@H](CO)O[C@@H](Oc5ccc6c(C)cc(=O)oc6c5)[C@@H]4O)[C@@H]3NC(C)=O)[C@@H]2O[C@@H]2O[C@@H](C)[C@@H](O)[C@@H](O)[C@@H]2O)O[C@H](CO)[C@H](O)[C@@H]1O
The series is described as above. The settings on record: other: 100 mM NaH2PO4, pH 7.4, 37° C. The method, then:
as §1, §2, §3

Substrate in series [3]: CC(=O)N[C@H]1[C@@H](O[C@H]2[C@@H](O)[C@@H](CO)O[C@@H](O[C@H]3[C@H](O)[C@@H](CO)O[C@@H](Oc4ccc5c(C)cc(=O)oc5c4)[C@@H]3NC(C)=O)[C@@H]2O[C@@H]2O[C@@H](C)[C@@H](O)[C@@H](O)[C@@H]2O)O[C@H](CO)[C@H](O)[C@@H]1O
Described as above. As to conditions: other: 100 mM NaH2PO4, pH 7.4, 37° C. The method, then:
as §1, §2, §3

Substrate in series [4]: CC(=O)N[C@H]1[C@H](Oc2ccc3c(C)cc(=O)oc3c2)O[C@H](CO)[C@@H](O[C@@H]2O[C@H](CO)[C@H](O)[C@H](O[C@H]3O[C@H](CO)[C@H](O)[C@H](O)[C@H]3NC(C)=O)[C@H]2O[C@@H]2O[C@@H](C)[C@@H](O)[C@@H](O)[C@@H]2O)[C@@H]1O
The series is described as above. The settings on record: other: 100 mM NaH2PO4, pH 7.4, 37° C. How it is done: as §1, §2, §3

Substrate in series [5]: CC(=O)N[C@H]1[C@H](Oc2ccc3c(C)cc(=O)oc3c2)O[C@H](CO)[C@@H](O[C@@H]2O[C@H](CO)[C@H](O)[C@H](O[C@H]3O[C@H](CO)[C@H](O)[C@H](O)[C@H]3NC(C)=O)[C@H]2O[C@@H]2O[C@@H](C)[C@@H](O)[C@@H](O)[C@@H]2O)[C@@H]1O
Kind of series: Cleavage of A antigen Type2tetra-MU by FpGalNAcDeAc_D1min WT. As to conditions: other: WT, pH 7.4, 37° C. How it is done: as §3
Based on structural information (not shown) and sequence alignment (not shown) FpGalNAcDeAc_D1min and FpGalNase_truncA were mutated using the QuickChange™ protocol (Zhang 2004), utilizing the primers noted in TABLE B. The mutants were purified via NiNTA and HIC columns as described above. The structural integrity of all mutants was checked via CD spectroscopy; all tested enzymes were structurally similar to their wild-type. […]

As usually defined, the kcat/Km is the second-order rate constant that governs catalysis at low substrate concentration. In general, Km refers to the substrate concentration at which the rate is half of its maximum. For orientation: kcat means the number of substrate molecules converted per active site and unit of time at saturation.

B1: Flavonifractor plautii GalNAcDeacetylase (FpGalNAcDeAc), full length, SEQ ID NO: 2, 4, 5 (Flavonifractor plautii) (protein)
chain: MGHHHHHHHHHHSSGADSSESALNKAPGYQDFPAYYSDSAHADDQVTHPDVVVLEEPWNGYRYWAVYTPNVMRISIYENPSIVASSDGVHWVEPEGLSNPIEPQPPSTRYHNCDADMVYNAEYDAMMAYWNWADDQGGGVGAEVRLRISYDGVHWGVPVTYDEMTRVWSKPTSDAERQVADGEDDFITAIASPDRYDMLSPTIVYDDFRDVFILWANNTGDVGYQNGQANFVEMRYSDDGITWGEPVRVNGFLGLDENGQQLAPWHQDVQYVPDLKEFVCISQCFAGRNPDGSVLHLTTSKDGVNWEQVGTKPLLSPGPDGSWDDFQIYRSSFYYEPGSSAGDGTMRVWYSALQKDTNNKMVADSSGNLTIQAKSEDDRIWRIGYAENSFVEMMRVLLDDPGYTTPALVSGNSLMLSAETTSLPTGDVMKLETSFAPVDTSDQVVKYTSSDPDVATVDEFGTITGVSVGSARIMAETREGLSDDLEIAVVENPYTLIPQSNMTATATSVYGGTTEGPASNVLDGNVRTIWHTNYAPKDELPQSITVSFDQPYTVGRFVYTPRQNGTNGIISEYELYAIHQDGSKDLVASGSDWALDAKDKTVSFAPVEAVGLELKAIAGAGGFGTAAELNVYAYGPIEPAPVYVPVDDRDASLVFTGAWNSDSNGSFYEGTARYTNEIGASVEFTFVGTAIRWYGQNDVNFGAAEVYVDGVLAGEVNVYGPAAAQQLLFEADGLAYGKHTIRIVCVSPVVDFDYFSYVGE
As for B1, the kcat/Km worked out at 33270 ± 2080 M⁻¹ s⁻¹ in series [1], 14280 M⁻¹ s⁻¹ in series [2], 23490 ± 630 M⁻¹ s⁻¹ in series [3] and 23370 ± 710 M⁻¹ s⁻¹ in series [4]. Moreover, the Km in series [2] was 340 ± 35 µM. Further, in series [2], the kcat stood at 4.86 s⁻¹.

B2: Flavonifractor plautii GalNAcDeacetylase FpGalNAcDeAc_D1min, WT (Flavonifractor plautii) (protein)
chain: ADSSESALNKAPGYQDFPAYYSDSAHADDQVTHPDVVVLEEPWNGYRYWAVYTPNVMRISIYENPSIVASSDGVHWVEPEGLSNPIEPQPPSTRYHNCDADMVYNAEYDAMMAYWNWADDQGGGVGAEVRLRISYDGVHWGVPVTYDEMTRVWSKPTSDAERQVADGEDDFITAIASPDRYDMLSPTIVYDDFRDVFILWANNTGDVGYQNGQANFVEMRYSDDGITWGEPVRVNGFLGLDENGQQLAPWHQDVQYVPDLKEFVCISQCFAGRNPDGSVLHLTTSKDGVNWEQVGTKPLLSPGPDGSWDDFQIYRSSFYYEPGSSAGDGTMRVWYSALQKDTNNKMVADSSGNLTIQAKSEDDRIWRIGYAENSFVEMMRVLLDDPGYTTPALVSGNSLMLSAETTSLPTGDVMKLETSFAPVDTSDQVVKYTSSDPDVATVDEFGTITGVSVGSARIMAETREGLSDDLEIAVVENPYTLIPQSNMTATATSVYGGTTEGPASNVLDGNVRTIWHTNYAPKDELPQSITVSFDQPYTVGRFVYTPRQNGTNGIISEYELYAIHQDGSKDLVASGSDWALDAKDKTVSFAPVEAVGLELKAIAGAGGFGTAAELNVYAYGPIEPAPVYVPVDDRDASLVFTGAWNSDSNGSFYEGTARYTNEIGASVEFTFVGTAIRWYGQNDVNFGAAEVYVDGVLAGEVNVYGPAAAQQLLFEADGLAYGKHTIRIVCVSPVVDFDYFSYVGE
For the protein B2, the kcat/Km in series [5] is 8210 ± 2070 M⁻¹ s⁻¹.

For the origin of these results see patent US20240294895A1, “ENZYMATIC COMPOSITIONS FOR CARBOHYDRATE ANTIGEN CLEAVAGE ON DONOR ORGANS, METHODS AND USES ASSOCIATED THEREWITH” (THE UNIVERSITY OF BRITISH COLUMBIA, priority 2018, published 2024).
